Article PMC8997467

Columns and labels:
Conditions in all cases: glycan lost; control: wild type
[1] = anti-FLAG surface immunofluorescence, non-permeabilised HeLa
[2] = cell surface biotinylation, streptavidin pulldown, HeLa
[3] = co-immunostaining with ER marker HA-PDIA4

Substance | localisation_or_trafficking, percent_of_wt [1] | localisation_or_trafficking, percent_of_wt [2] | localisation_or_trafficking [3]
Neuronal growth regulator 1 (NEGR1): N155Q | no change |  | 
Neuronal growth regulator 1 (NEGR1): N275Q | no change |  | 
Neuronal growth regulator 1 (NEGR1): N73Q | no change |  | 
Neuronal growth regulator 1 (NEGR1): 1MT (N307Q) |  | no change | 
Neuronal growth regulator 1 (NEGR1): N286Q | no change |  | 
Neuronal growth regulator 1 (NEGR1): N307Q | no change |  | 
Neuronal growth regulator 1 (NEGR1): N73Q/N155Q | abolishes | abolishes | changes
Neuronal growth regulator 1 (NEGR1): N294Q | no change |  | 
